The values that follow come from paper PMC6007875 (Nature, 2018).

The labels stand for the following.
B2: FGF23^ΔHBS (R140A/R143A) (ligand, human, UniProt Q9GZV9 25-251, looked up)
chain: YPNASPLLGSSWGGLIHLYTATARNSYHLQIHKNGHVDGAPHQTIYSALMIRSEDAGFVVITGVMSRRYLCMDFRGNIFGSHYFDPENCRFQHQTLENGYDVYHSPQYHFLVSLGAAKAAFLPGMNPPPYSQFLSRRNEIPLIHFNTPIPRRHTRSAEDDSERDPLNVLKPRARMTPAPASCSQELPSAEDNSPMASDPLGVVRGGRVNTHAGGTGPEGCRPFAKFI
B3: FGFR1c ligand-binding domain (FGFR1c^ecto) (domain or fragment, human)
chain: DNTKPNRMPVAPYWTSPEKMEKKLHAVPAAKTVKFKCPSSGTPNPTLRWLKNGKEFKPDHRIGGYKVRYATWSIIMDSVVPSDKGNYTCIVENEYGSINHTYQLDVVERSPHRPILQAGLPANKTVALGSNVEFMCKVYSDPQPHIQWLKHIEVNGSKIGPDNLPYVQILKTAGVNTTDKEMEVLHLRNVSFEDAGEYTCLAGNSIGLSHHSAWLTVLEALEER
B4: FGF23^ΔSRBS (M149A/N150A/P151A) (ligand, human, UniProt Q9GZV9 25-251, looked up)
chain: YPNASPLLGSSWGGLIHLYTATARNSYHLQIHKNGHVDGAPHQTIYSALMIRSEDAGFVVITGVMSRRYLCMDFRGNIFGSHYFDPENCRFQHQTLENGYDVYHSPQYHFLVSLGRAKRAFLPGAAAPPYSQFLSRRNEIPLIHFNTPIPRRHTRSAEDDSERDPLNVLKPRARMTPAPASCSQELPSAEDNSPMASDPLGVVRGGRVNTHAGGTGPEGCRPFAKFI

For one assay, the target named is FGFR1c (Homo sapiens) (UniProt P11362). As to conditions: cited from earlier work.
Sequence of FGFR1c (Homo sapiens) (P11362 22-376): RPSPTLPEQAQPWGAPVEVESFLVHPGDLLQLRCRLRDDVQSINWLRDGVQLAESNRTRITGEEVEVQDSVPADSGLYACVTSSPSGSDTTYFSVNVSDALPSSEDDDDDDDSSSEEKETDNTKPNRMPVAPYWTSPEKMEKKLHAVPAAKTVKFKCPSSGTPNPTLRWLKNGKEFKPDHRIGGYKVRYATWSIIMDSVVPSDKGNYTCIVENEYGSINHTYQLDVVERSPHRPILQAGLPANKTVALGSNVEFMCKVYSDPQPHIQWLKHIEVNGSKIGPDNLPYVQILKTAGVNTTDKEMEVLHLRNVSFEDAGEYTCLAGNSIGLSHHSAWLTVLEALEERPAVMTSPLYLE
Assay [1] concerns the target B3. In words: SEC-MALS. For orientation: In gel filtration, larger molecules generally elute earlier.
The target in assay [2] is T1, shed extracellular domain of αKlotho (αKlotho^ecto) (human, UniProt Q9UEF7 34-981).
T1 sequence (looked up): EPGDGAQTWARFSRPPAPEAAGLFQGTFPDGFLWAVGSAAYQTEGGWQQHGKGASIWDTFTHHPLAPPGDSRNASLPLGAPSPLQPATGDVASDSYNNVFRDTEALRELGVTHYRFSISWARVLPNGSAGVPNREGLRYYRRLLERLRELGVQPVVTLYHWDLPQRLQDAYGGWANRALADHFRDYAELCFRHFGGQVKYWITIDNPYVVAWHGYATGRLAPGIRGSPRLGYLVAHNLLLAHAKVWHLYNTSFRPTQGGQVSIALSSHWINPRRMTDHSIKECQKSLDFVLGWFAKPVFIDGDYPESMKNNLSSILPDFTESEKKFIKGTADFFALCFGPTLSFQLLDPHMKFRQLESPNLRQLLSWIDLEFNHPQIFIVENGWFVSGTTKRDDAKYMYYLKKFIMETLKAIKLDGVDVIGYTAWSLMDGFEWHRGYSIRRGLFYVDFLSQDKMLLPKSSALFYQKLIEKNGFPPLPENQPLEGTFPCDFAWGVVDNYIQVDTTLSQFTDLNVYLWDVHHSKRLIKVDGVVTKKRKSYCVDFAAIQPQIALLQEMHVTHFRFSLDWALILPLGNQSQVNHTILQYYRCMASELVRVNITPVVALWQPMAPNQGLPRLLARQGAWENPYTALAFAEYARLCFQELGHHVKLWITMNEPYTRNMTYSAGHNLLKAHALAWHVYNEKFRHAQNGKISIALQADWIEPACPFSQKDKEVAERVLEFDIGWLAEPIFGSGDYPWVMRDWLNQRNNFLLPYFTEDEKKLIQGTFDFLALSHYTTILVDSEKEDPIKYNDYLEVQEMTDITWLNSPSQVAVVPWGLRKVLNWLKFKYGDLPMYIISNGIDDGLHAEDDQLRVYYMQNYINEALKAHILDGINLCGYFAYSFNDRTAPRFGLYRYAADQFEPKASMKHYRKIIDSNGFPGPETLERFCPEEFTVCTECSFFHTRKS
Put plainly: SEC-MALS.

The assay “FGF23^ΔHBS (R140A/R143A)” has as its target B2. In words: SEC-MALS.
Assay [3] concerns the target B4. Put plainly: SEC-MALS.

On to αKlotho (from UniProt Q9UEF7), for which the Kd (in general, the concentration at which binding is half-saturated) in the assay with FGFR1c (Homo sapiens) was 72 nM.

B1: fibroblast growth factor 23 (FGF23) (ligand, human, UniProt Q9GZV9 25-251, looked up)
chain: YPNASPLLGSSWGGLIHLYTATARNSYHLQIHKNGHVDGAPHQTIYSALMIRSEDAGFVVITGVMSRRYLCMDFRGNIFGSHYFDPENCRFQHQTLENGYDVYHSPQYHFLVSLGRAKRAFLPGMNPPPYSQFLSRRNEIPLIHFNTPIPRRHTRSAEDDSERDPLNVLKPRARMTPAPASCSQELPSAEDNSPMASDPLGVVRGGRVNTHAGGTGPEGCRPFAKFI
Consider B1, for which the “stoichiometry N” value in assay [1] and in assay [2] was 1 in each case.

Turning to B2, the binding result in assay [2] is on record as “binds”.

For the molecule B3, the binding result (with FGF23^ΔHBS (R140A/R143A); in assay [3]) was “binds” throughout. Moreover, the stoichiometry N (commonly a count of units in the complex or per binding partner) in assay [2] turned out to be 1.

Consider B4, for which, in assay [2], the binding result is given as “binds”.

B5: FGFR1c^ΔHBS (K160Q/K163Q), ecto (domain or fragment, human)
chain: DNTKPNRMPVAPYWTSPEQMEQKLHAVPAAKTVKFKCPSSGTPNPTLRWLKNGKEFKPDHRIGGYKVRYATWSIIMDSVVPSDKGNYTCIVENEYGSINHTYQLDVVERSPHRPILQAGLPANKTVALGSNVEFMCKVYSDPQPHIQWLKHIEVNGSKIGPDNLPYVQILKTAGVNTTDKEMEVLHLRNVSFEDAGEYTCLAGNSIGLSHHSAWLTVLEALEER
In the case of B5, the binding result in assay [2] is “binds”.

B6: FGFR1c^ΔRRBS (A171D), ecto (domain or fragment, human)
chain: DNTKPNRMPVAPYWTSPEKMEKKLHAVPADKTVKFKCPSSGTPNPTLRWLKNGKEFKPDHRIGGYKVRYATWSIIMDSVVPSDKGNYTCIVENEYGSINHTYQLDVVERSPHRPILQAGLPANKTVALGSNVEFMCKVYSDPQPHIQWLKHIEVNGSKIGPDNLPYVQILKTAGVNTTDKEMEVLHLRNVSFEDAGEYTCLAGNSIGLSHHSAWLTVLEALEER
As to B6, the binding result in assay [2] is recorded as “binds”.

B7: FGFR1c^ΔSLBS (I203E), ecto (domain or fragment, human)
chain: DNTKPNRMPVAPYWTSPEKMEKKLHAVPAAKTVKFKCPSSGTPNPTLRWLKNGKEFKPDHREGGYKVRYATWSIIMDSVVPSDKGNYTCIVENEYGSINHTYQLDVVERSPHRPILQAGLPANKTVALGSNVEFMCKVYSDPQPHIQWLKHIEVNGSKIGPDNLPYVQILKTAGVNTTDKEMEVLHLRNVSFEDAGEYTCLAGNSIGLSHHSAWLTVLEALEER
As to B7, the binding result in assay [2] was “binds”.

B8: FGFR1c^ΔHBS’ (K207Q/R209Q), ecto (domain or fragment, human)
chain: DNTKPNRMPVAPYWTSPEKMEKKLHAVPAAKTVKFKCPSSGTPNPTLRWLKNGKEFKPDHRIGGYQVQYATWSIIMDSVVPSDKGNYTCIVENEYGSINHTYQLDVVERSPHRPILQAGLPANKTVALGSNVEFMCKVYSDPQPHIQWLKHIEVNGSKIGPDNLPYVQILKTAGVNTTDKEMEVLHLRNVSFEDAGEYTCLAGNSIGLSHHSAWLTVLEALEER
As to B8, the binding result in assay [2] is “binds”.

B9: FGFR1c^ΔSLBS’ (V221D), ecto (domain or fragment, human)
chain: DNTKPNRMPVAPYWTSPEKMEKKLHAVPAAKTVKFKCPSSGTPNPTLRWLKNGKEFKPDHRIGGYKVRYATWSIIMDSVDPSDKGNYTCIVENEYGSINHTYQLDVVERSPHRPILQAGLPANKTVALGSNVEFMCKVYSDPQPHIQWLKHIEVNGSKIGPDNLPYVQILKTAGVNTTDKEMEVLHLRNVSFEDAGEYTCLAGNSIGLSHHSAWLTVLEALEER
With B9, the binding result in assay [2] is reported as “binds”.
